The values that follow come from patent US20020055130A1, “Method and product for regulating apoptosis” (National Jewish Center for Immunology and Respiratory …, priority 1997, published 2002).

In assay [1] the test system is MEKK1. Kind of assay: SEK1 K→M phosphorylation by MEKK1 immunoprecipitates. Format: biochemical, mouse. The settings on record: HEK293 lysates; 95-012 antibody. Here is the method:
MEKK1 was immunoprecipitated from cell lysates (200-500 μg) with the antibodies raised against specific sequences of MEKK1 or the 12CA5 antibody that recognizes the HA-tag sequence.

In assay [2] the test system is MEKK1. Kind of assay: Immunoblot of cleavage fragments of transfected HA-tagged MEKK1 in HEK293 cells. Format: cell-based, Human. An excerpt: The full length cDNA encoding mouse MEKK1 was modified by addition of the HA-tag sequence ([…]) (SEQ ID NO: 12) at its NH2-terminus and inserted into the expression plasmid pCEP4 (Invitrogen), resulting in plasmid MEKK1.cp4. The MEKK1 sequences DTVD (amino acids 871-874) and DEVE (amino acids 857-860) in MEKK1.cp4 were substituted with alanines using a PCR strategy. The resulting plasmids were named DTVD_A.cp4 and DEVE_A.cp4. The cDNAs for CrmA (Pickup et al., 1986), p35 (Cartier et al., 1994), JNK1-APF (Dérijard et al., 1994) and JNK2-APF (Kallunki et al., 1994) were subcloned in pCEP4 in which the hygromycin resistance gene had been removed, resulting in plasmids CrmA.cp_, p35.cp_, JNK1_APF.cp and JNK2_APF.cp_. Plasmid pCDNA—3.cp4 is the result of the ligation of pCEP4 and pCDNA-3.
200-400 μg cell lysate protein was subjected to SDS-9% PAGE and transferred to nitrocellulose membranes. Blots were performed exactly as described (Widmann et al., 1995). To detect HA-tagged proteins, the mouse monoclonal antibody 12CA5 (Babco) was used as the primary antibody, followed by a rabbit anti-mouse antibody (Cappel). HRP-conjugated protein A at a 1/5000 dilution (Zymed) and ^125I-protein A at a 1/500 dilution (Dupont NEN) were then used for enhanced chemiluminescence (ECL) detection and for quantification using the phosphorimager. To detect MEKK1, 3 different ploclonal antisera were used as primary antibodies, followed by ECL detection using HRP-protein A (see above). These sera were generated by injecting rabbits with GST proteins fused with different portions of the MEKK1 protein.

In assay [3] the test system is HEK293 cells. Kind of assay: MEKK1 staining and TdT-mediated dUTP incorporation (DNA fragmentation) in transfected cells. In kind it is cell-based, Human. Here is the method:
Human embryonal kidney 293 cells (HEK293) stably expressing the EBNA-1 protein from Epstein-Barr virus (Invitrogen) were grown in Dulbecco's modified Eagle's medium (DMEM) supplemented with 100 U/ml penicillin/streptomycin and containing 10% bovine calf serum (BCS). The cells were transfected using lipofectamine (Gibco).
Cells were grown on glass coverslips and transfected using lipofectamine. Two days after transfection, the medium was removed and the cells were fixed in 2% paraformaldehyde, 3% sucrose in phosphate buffered saline (PBS) for 10 min at room temperature. Following three washes with PBS, the cells were permeabilized for 10 min with 2% Triton-X100 in PBS. After three PBS washes, the cells were blocked with filtered cultured medium for 15 min. The coverslips were then incubated 1 hour in TdT reaction mix (200 mM potassium cacodylate, 25 mM Tris.HCl, pH 6.6, 250 μg/ml BSA, 5 mM CoCl2, 0.25 U/μl TdT [Boehringer], 10 μM biotin-dUTP [Boehringer]) at 37° C. in a humidifed atmosphere. […] The coverslips were then washed 6× over a 30 min period with PBS and incubated 1 hour at room temperature with a 1/1000 dilution in filtered culture medium of a donkey anti-rabbit, Cy^3-conjugated, antibody (Jackson Immunological) mixed with 5 μg/ml streptavidin conjugated with FITC (Jackson Immunological). The coverslips were washed 6× with PBS and incubated overnight in PBS before being mounted in 20 mg/ml o-phenyldiamine-diHCl (Sigma) in 0.1 M Tris pH 8.5, 90% glycerol. Images were taken using a Leica DMRXA microscope and analyzed with the SlideBook v2.0 software (Intelligent Imaging Innovations, Denver). The subcellular localization of endogenous MEKK1 observed with the anti-COOH-terminal MEKK1 antibody was identical to that observed with a second antibody recognizing the NH2-terminal portion of the MEKK1 protein.

Assay [4] relates to ERK2. The assay can be described thus: ERK2 immunoprecipitation kinase assay, transfected HEK293 cells. The conditions noted are these: co-expression with MEKK1. In kind it is cell-based, Human. How it is done:
(§1) Lysis buffer (70 mM β-glycerophosphate, 1 mM EGTA, 100 μM Na3VO4, 1 mM DTT, 2 mM MgCl2, 0.5% Triton-X100, 20 μg/ml aprotinin) was added to cells 15-24 hours after transfection. Cellular debris was removed by centrifugation at 8,000xg for 5 min. Protein concentration was normalized by Bradford assay using BSA as standard.
ERK2 was immunoprecipitated as described above for the JNK isoforms using the ERK2 (C-14) antibody (Santa Cruz Biotechnology). The beads were washed twice with 1 ml lysis buffer and twice with 1 ml lysis buffer without Triton-X100. […] The samples were washed thrice for 5 min each in 75 mM phosphoric acid and once for 2 min in acetone, air-dried, and their radioactivity determined in a β counter.

Assay [5] concerns c-Jun kinase (JNK). Kind of assay: c-Jun kinase assay, transfected HEK293 cells. In kind it is cell-based, Human. How it is done:
as §1
c-Jun kinase (JNK) activity was measured using a solid phase kinase assay in which glutathione S-transferase-c-Jun(1-79) (GST-Jun) bound to glutathione-Sepharose 4B beads was used to affinity-purify JNK from cell lysates as described (Gardner and Johnson, 1996; Hibi et al., 1993). Alternatively, JNKI or JNK2 were immunoprecipitated with isoform specific antibodies (Santa Cruz Biotechnology) and GST-Jun used as substrate in an in vitro kinase assay (Hibi et al., 1993). Quantitation of the phosphorylation of GST-Jun was performed with a Phosphorlmager.

The mark [6] stands for this setting: co-expression with MEKK1, 6 independent experiments.

B1: p35: baculovirus protein with broad inhibitory activity to ICE/FLICE-like proteases (protein, UniProt P08160 1-299, looked up)
Early 35 kDa protein: MCVIFPVEIDVSQTIIRDCQVDKQTRELVYINKIMNTQLTKPVLMMFNISGPIRSVTRKNNNLRDRIKSKVDEQFDQLERDYSDQMDGFHDSIKYFKDEHYSVSCQNGSVLKSKFAKILKSHDYTDKKSIEAYEKYCLPKLVDERNDYYVAVCVLKPGFENGSNQVLSFEYNPIGNKVIVPFAHEINDTGLYEYDVVAYVDSVQFDGEQFEEFVQSLILPSSFKNSEKVLYYNEASKNKSMIYKALEFTTESSWGKSEKYNWKIFCNGFIYDKKSKVLYVKLHNVTSALNKNVILNTIK
Turning to B1, the “SEK1 phosphorylation by COOH-terminal antibody immunoprecipitates” value in assay [1] is “reached the same level of phosphorylation observed when the 12CA5 antibody was used”. Also, in assay [2] (setting [6]), the “amount of fragment A” value was “unchanged” and the “diminution of the amount of fragment B” value is 90%. Besides, the “expressing cells showing DNA breaks” value in assay [3] (co-expression with ΔMEKK1) was 10%. In addition, in assay [3] (cotransfected with MEKK1), the “cells showing some DNA fragmentation” value was “about 5%”. Besides, the “effect on activation of ERK2 by MEKK1” value in assay [4] is “unaffected”. The “effect on activation of the JNKs by MEKK1” value in assay [5] (co-expression with MEKK1) is listed as “unaffected”.

B2: DTVD→A: MEKK1 mutant with DTVD (amino acids 871-874) substituted with alanines (protein, UniProt P53349 2-1493, looked up, variant D871A T872A V873A D874A)
Mitogen-activated protein …: AAAAGDRASSSGFPGAAAASPEAGGGGGGGGALQGSGAPAAGAAGLLREPGSAGRERADWRRRQLRKVRSVELDQLPEQPLFLAAASPPCPSTSPSPEPADAAAGASRFQPAAGPPPPGAASRCGSHSAELAAARDSGARSPAGAEPPSAAAPSGREMENKETLKGLHKMEDRPEERMIREKLKATCMPAWKHEWLERRNRRGPVVVKPIPIKGDGSEVNNLAAEPQGEGQAGSAAPAPKGRRSPSPGSSPSGRSVKPESPGVRRKRVSPVPFQSGRITPPRRAPSPDGFSPYSPEETSRRVNKVMRARLYLLQQIGPNSFLIGGDSPDNKYRVFIGPQNCSCGRGAFCIHLLFVMLRVFQLEPSDPMLWRKTLKNFEVESLFQKYHSRRSSRIKAPSRNTIQKFVSRMSNSHTLSSSSTSTSSSENSIKDEEEQMCPICLLGMLDEESLTVCEDGCRNKLHHHCMSIWAEECRRNREPLICPLCRSKWRSHDFYSHELSSPVESPASLRAVQQPSSPQQPVAGSQRRNQESSFNLTHFGTQQIPSAYKDLAEPWIQVFGMELVGCLFSRNWNVREMALRRLSHDVSGALLLANGESTGNSGGGSGGSLSAGAASGSSQPSISGDVVEACCSVLSIVCADPVYKVYVAALKTLRAMLVYTPCHSLAERIKLQRLLRPVVDTILVKCADANSRTSQLSISTVLELCKGQAGELAVGREILKAGSIGVGGVDYVLSCILGNQAESNNWQELLGRLCLIDRLLLEFPAEFYPHIVSTDVSQAEPVEIRYKKLLSLLTFALQSIDNSHSMVGKLSRRIYLSSARMVTAVPAVFSKLVTMLNASGSTHFTRMRRRLMAIADEVEIAEVIQLGVEAAAAGHQDSLQAVAPTSCLENSSLEHTVHREKTGKGLSATRLSASSEDISDRLAGVSVGLPSSTTTEQPKPAVQTKGRPHSQCLNSSPLSHAQLMFPAPSAPCSSAPSVPDISKHRPQAFVPCKIPSASPQTQRKFSLQFQRNCSEHRDSDQLSPVFTQSRPPPSSNIHRPKPSRPVPGSTSKLGDATKSSMTLDLGSASRCDDSFGGGGNSGNAVIPSDETVFTPVEDKCRLDVNTELNSSIEDLLEASMPSSDTTVTFKSEVAVLSPEKAENDDTYKDDVNHNQKCKEKMEAEEEEALAIAMAMSASQDALPIVPQLQVENGEDIIIIQQDTPETLPGHTKAKQPYREDAEWLKGQQIGLGAFSSCYQAQDVGTGTLMAVKQVTYVRNTSSEQEEVVEALREEIRMMGHLNHPNIIRMLGATCEKSNYNLFIEWMAGGSVAHLLSKYGAFKESVVINYTEQLLRGLSYLHENQIIHRDVKGANLLIDSTGQRLRIADFGAAARLASKGTGAGEFQGQLLGTIAFMAPEVLRGQQYGRSCDVWSVGCAIIEMACAKPPWNAEKHSNHLALIFKIASATTAPSIPSHLSPGLRDVAVRCLELQPQDRPPSRELLKHPVFRTTW
On to B2, for which the “SEK1 phosphorylation by COOH-terminal antibody immunoprecipitates” value in assay [1] is listed as “reduced”. Also, in assay [2] (mutants transfected into HEK293 cells), the “MEKK1 cleavage fragments generated” value is “only cleaved into fragments A and D”. The “reduction in number of expressing cells showing DNA fragmentation” value in assay [3] (compared to wild-type MEKK1 or the DEVE→A mutant) is 65%. Moreover, in assay [3] (expression in HEK293 cells), the DNA fragmentation result is “little DNA fragmentation”. Further, in assay [5] (expression in HEK293 cells), the JNK activation result was “activated JNK to the same level as wild type MEKK1”.
